# From US20190062426A1
# B1: 5F11-28Z CAR (protein)
# chain: DIQMTQSPTSLSASVGDRVTITCRASQGISSWLTWYQQKPEKAPKSLIYAASSLQSGVPSRFSGSGSGTDFTLTISSLQPEDFATYYCQQYDSYPITFGQGTRLEIKGSTSGSGKPGSGEGSTKGQVQLQQWGAGLLKPSETLSLTCAVYGGSFSAYYWSWIRQPPGKGLEWIGDINHGGGTNYNPSLKSRVTISVDTSKNQFSLKLNSVTAADTAVYYCASLTAYWGQGSLVTVSSIEVMYPPPYLDNEKSNGTIIHVKGKHLCPSPLFPGPSKPFWVLVVVGGVLACYSLLVTVAFIIFWVRSKRSRLLHSDYMNMTPRRPGPTRKHYQPYAPPRDFAAYRSRVKFSRSADAPAYQQGQNQLYNELNLGRREEYDVLDKRRGRDPEMGGKPRRKNPQEGLYNELQKDKMAEAYSEIGMKGERRRGKGHDGLYQGLSTATKDTYDALHMQALPPR
# Molecular target: human CD30 (tumor necrosis factor receptor superfamily, member 8 (TNFRSF8)) (human) (UniProt P28908)
# Experiment: cell-based or functional assay
# Sequence of UniProt P28908 (P28908 19-595): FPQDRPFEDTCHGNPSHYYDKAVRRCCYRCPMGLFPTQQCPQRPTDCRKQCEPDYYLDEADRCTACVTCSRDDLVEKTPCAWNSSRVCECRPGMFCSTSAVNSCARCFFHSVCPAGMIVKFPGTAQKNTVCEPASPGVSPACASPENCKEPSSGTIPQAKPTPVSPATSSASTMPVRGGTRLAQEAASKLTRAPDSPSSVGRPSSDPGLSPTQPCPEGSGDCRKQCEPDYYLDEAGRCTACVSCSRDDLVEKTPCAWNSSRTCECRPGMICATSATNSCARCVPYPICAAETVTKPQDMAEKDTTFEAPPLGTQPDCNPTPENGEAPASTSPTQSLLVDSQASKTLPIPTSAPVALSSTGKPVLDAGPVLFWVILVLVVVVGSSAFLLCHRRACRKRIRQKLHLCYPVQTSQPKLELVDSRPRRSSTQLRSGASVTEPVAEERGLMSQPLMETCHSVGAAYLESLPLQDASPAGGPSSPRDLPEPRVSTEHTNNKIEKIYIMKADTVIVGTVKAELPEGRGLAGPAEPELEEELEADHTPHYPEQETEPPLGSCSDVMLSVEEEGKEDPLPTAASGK
Molecule,"CD107a degranulation, % CD8+CD107a+ cells after 4 h with CD30-bv173 cells (% of live CD3+ lymphocytes)","CD107a degranulation, % CD8-CD107a+ cells after 4 h with CD30-bv173 cells (% of live CD3+ lymphocytes)",IFNγ released (ELISA) after overnight culture with CD30+ HDLM-2 cells [pg/mL],IFNγ released (ELISA) after overnight culture with CD30+ SUDHL-1 cells [pg/mL],antigen-specific IFNγ production on culture with CD30+ HH lymphoma cells,"CD107a degranulation, % CD8+CD107a+ cells after 4 h with CD30+ SUDHL-1 cells (% of live CD3+ lymphocytes)","CD107a degranulation, % CD8-CD107a+ cells after 4 h with CD30+ SUDHL-1 cells (% of live CD3+ lymphocytes)",IFNγ released (ELISA) on co-culture with CD30+ HH cells [pg/mL],IFNγ released (ELISA) on co-culture with CD30+ SUDHL-1 cells [pg/mL],IFNγ released (ELISA) on co-culture with CD30-bv173 cells [pg/mL],"IFNγ released (ELISA) on overnight culture with CD30+ HH cells, 0 µg/mL soluble human CD30 protein added [pg/mL]","IFNγ released (ELISA) on overnight culture with CD30+ HH cells, 0.2 µg/mL soluble human CD30 protein added [pg/mL]","IFNγ released (ELISA) on overnight culture with CD30+ HH cells, 1 µg/mL soluble human CD30 protein added [pg/mL]","IFNγ released (ELISA) on overnight culture with CD30+ HH cells, 5 µg/mL soluble human CD30 protein added [pg/mL]"
5F11-CD828Z CAR,30,11.6,3010,2300,34300,,,,,,,,,
5F11-CD8BBZ CAR,25.9,12.1,,,47700,,,,,,,,,
AC10-28Z CAR,,,,,,6.18,1.34,8140,4850,538,,,,
XmAb2513-28Z CAR,,,,,,7.72,1.86,4700,2440,388,,,,
B1,39.5,6.82,3530,3490,127000,47.4,4.32,78600,25500,3780,23000,18400,19900,18700
